# Measurements published in the supplement of paper PMC9112550, “Optimization of the antimicrobial peptide Bac7 by deep mutational scanning” (BMC Biology, 2022).
# System: Escherichia coli TOP10
# Assay: shrunken log2 fold change of peptide-encoding DNA abundance (4.5 h post-induction vs induction); higher = less antimicrobial activity (less host growth inhibition)
# Settings: time post-induction: 4.5 h; library: site-saturation at positions 5, 18, 19, 20
# 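Further: peptides expressed intracellularly from a pBAD plasmid library in pooled LB shake-flask culture, induced with 0.3% L-arabinose, DNA abundance read by NGS, three biological replicates, DESeq2 with apeglm shrinkage.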
row,Sequence,shrunken log2 fold change
1,RRIRRRPPRLPRPRPRPLMVPRP,-0.161
2,RRIRRRPPRLPRPRPRPLPAPRP,0.599
3,RRIRRRPPRLPRPRPRPLPTPRP,0.729
4,RRIRRRPPRLPRPRPRPLQSPRP,0.242
5,RRIRRRPPRLPRPRPRPLRKPRP,0.793
6,RRIRRRPPRLPRPRPRPLSCPRP,-0.146
7,RRIRRRPPRLPRPRPRPLTQPRP,0.342
8,RRIRRRPPRLPRPRPRPLWFPRP,0.396
9,RRIRRRPPRLPRPRPRPLYHPRP,-0.353
10,RRIRRRPPRLPRPRPRPLYMPRP,-0.15
11,RRIRRRPPRLPRPRPRPLYTPRP,-0.132
12,RRIRRRPPRLPRPRPRPMGEPRP,0.0186
13,RRIRRRPPRLPRPRPRPMGIPRP,0.0313
14,RRIRRRPPRLPRPRPRPMHKPRP,0.299
15,RRIRRRPPRLPRPRPRPMHTPRP,0.322
16,RRIRRRPPRLPRPRPRPMKCPRP,-0.0984
17,RRIRRRPPRLPRPRPRPMKDPRP,0.19
18,RRIRRRPPRLPRPRPRPMKFPRP,0.212
19,RRIRRRPPRLPRPRPRPMMHPRP,0.101
20,RRIRRRPPRLPRPRPRPMMKPRP,0.324
21,RRIRRRPPRLPRPRPRPMNNPRP,-0.137
22,RRIRRRPPRLPRPRPRPMPCPRP,0.0929
23,RRIRRRPPRLPRPRPRPMSCPRP,0.0813
24,RRIRRRPPRLPRPRPRPMSNPRP,-0.0453
25,RRIRRRPPRLPRPRPRPMTNPRP,-0.00301

row,Sequence,shrunken log2 fold change
1,RRIRRRPPRLPRPRPRPMTYPRP,-0.0343
2,RRIRRRPPRLPRPRPRPMVNPRP,-0.0292
3,RRIRRRPPRLPRPRPRPMWGPRP,0.0327
4,RRIRRRPPRLPRPRPRPMWIPRP,-0.137
5,RRIRRRPPRLPRPRPRPMWKPRP,-0.0119
6,RRIRRRPPRLPRPRPRPMWPPRP,0.265
7,RRIRRRPPRLPRPRPRPMWWPRP,0.291
8,RRIRRRPPRLPRPRPRPMWYPRP,0.0371
9,RRIRRRPPRLPRPRPRPMYGPRP,-0.0152
10,RRIRRRPPRLPRPRPRPMYIPRP,-0.73
11,RRIRRRPPRLPRPRPRPMYTPRP,-0.219
12,RRIRRRPPRLPRPRPRPNAAPRP,0.794
13,RRIRRRPPRLPRPRPRPNCIPRP,0.104
14,RRIRRRPPRLPRPRPRPNDKPRP,-0.178
15,RRIRRRPPRLPRPRPRPNDMPRP,0.13
16,RRIRRRPPRLPRPRPRPNEFPRP,-0.0247
17,RRIRRRPPRLPRPRPRPNFTPRP,0.205
18,RRIRRRPPRLPRPRPRPNFVPRP,-0.142
19,RRIRRRPPRLPRPRPRPNHEPRP,-0.0399
20,RRIRRRPPRLPRPRPRPNIMPRP,-0.359
21,RRIRRRPPRLPRPRPRPNKDPRP,0.202
22,RRIRRRPPRLPRPRPRPNMCPRP,-0.368
23,RRIRRRPPRLPRPRPRPNMQPRP,0.183
24,RRIRRRPPRLPRPRPRPNNMPRP,-0.348
25,RRIRRRPPRLPRPRPRPNPMPRP,0.359

row,Sequence,shrunken log2 fold change
1,RRIRRRPPRLPRPRPRPNQWPRP,0.128
2,RRIRRRPPRLPRPRPRPNRGPRP,-0.0468
3,RRIRRRPPRLPRPRPRPNRLPRP,0.523
4,RRIRRRPPRLPRPRPRPNVIPRP,-0.265
5,RRIRRRPPRLPRPRPRPNVKPRP,0.0575
6,RRIRRRPPRLPRPRPRPNWIPRP,0.259
7,RRIRRRPPRLPRPRPRPNWLPRP,0.121
8,RRIRRRPPRLPRPRPRPPAHPRP,0.728
9,RRIRRRPPRLPRPRPRPPDAPRP,0.768
10,RRIRRRPPRLPRPRPRPPDYPRP,0.244
11,RRIRRRPPRLPRPRPRPPEIPRP,-0.17
12,RRIRRRPPRLPRPRPRPPEYPRP,0.0513
13,RRIRRRPPRLPRPRPRPPFNPRP,0.333
14,RRIRRRPPRLPRPRPRPPFSPRP,0.207
15,RRIRRRPPRLPRPRPRPPGDPRP,1.06
16,RRIRRRPPRLPRPRPRPPGYPRP,1.22
17,RRIRRRPPRLPRPRPRPPIFPRP,0.16
18,RRIRRRPPRLPRPRPRPPKSPRP,0.37
19,RRIRRRPPRLPRPRPRPPLMPRP,0.708
20,RRIRRRPPRLPRPRPRPPLRPRP,0.964
21,RRIRRRPPRLPRPRPRPPLSPRP,0.996
22,RRIRRRPPRLPRPRPRPPNAPRP,1.06
23,RRIRRRPPRLPRPRPRPPNHPRP,0.234
24,RRIRRRPPRLPRPRPRPPNPPRP,0.691
25,RRIRRRPPRLPRPRPRPPNSPRP,-0.0871

row,Sequence,shrunken log2 fold change
1,RRIRRRPPRLPRPRPRPPPTPRP,1.12
2,RRIRRRPPRLPRPRPRPPQWPRP,0.66
3,RRIRRRPPRLPRPRPRPPSKPRP,0.172
4,RRIRRRPPRLPRPRPRPPSQPRP,0.46
5,RRIRRRPPRLPRPRPRPPTRPRP,0.688
6,RRIRRRPPRLPRPRPRPPTYPRP,0.0139
7,RRIRRRPPRLPRPRPRPPVHPRP,0.197
8,RRIRRRPPRLPRPRPRPPWYPRP,0.0413
9,RRIRRRPPRLPRPRPRPQCIPRP,-0.0103
10,RRIRRRPPRLPRPRPRPQDCPRP,-0.151
11,RRIRRRPPRLPRPRPRPQDEPRP,-0.0204
12,RRIRRRPPRLPRPRPRPQDIPRP,-1.16
13,RRIRRRPPRLPRPRPRPQDLPRP,0.0389
14,RRIRRRPPRLPRPRPRPQEHPRP,1.34
15,RRIRRRPPRLPRPRPRPQFTPRP,-0.0485
16,RRIRRRPPRLPRPRPRPQGKPRP,0.0379
17,RRIRRRPPRLPRPRPRPQGLPRP,0.143
18,RRIRRRPPRLPRPRPRPQHCPRP,-0.0448
19,RRIRRRPPRLPRPRPRPQIQPRP,0.151
20,RRIRRRPPRLPRPRPRPQKEPRP,0.00366
21,RRIRRRPPRLPRPRPRPQKFPRP,-0.0996
22,RRIRRRPPRLPRPRPRPQKHPRP,0.0365
23,RRIRRRPPRLPRPRPRPQKSPRP,-0.106
24,RRIRRRPPRLPRPRPRPQKTPRP,-0.019
25,RRIRRRPPRLPRPRPRPQLMPRP,0.247

row,Sequence,shrunken log2 fold change
1,RRIRRRPPRLPRPRPRPQPDPRP,0.317
2,RRIRRRPPRLPRPRPRPQPTPRP,0.533
3,RRIRRRPPRLPRPRPRPQQMPRP,0.12
4,RRIRRRPPRLPRPRPRPQRKPRP,0.347
5,RRIRRRPPRLPRPRPRPQRNPRP,0.245
6,RRIRRRPPRLPRPRPRPQRYPRP,-0.15
7,RRIRRRPPRLPRPRPRPQSHPRP,-0.0536
8,RRIRRRPPRLPRPRPRPQSMPRP,0.0695
9,RRIRRRPPRLPRPRPRPQSVPRP,-0.0146
10,RRIRRRPPRLPRPRPRPQWGPRP,0.323
11,RRIRRRPPRLPRPRPRPQWQPRP,0.435
12,RRIRRRPPRLPRPRPRPQWSPRP,-0.00927
13,RRIRRRPPRLPRPRPRPQWTPRP,0.31
14,RRIRRRPPRLPRPRPRPQYAPRP,0.0794
15,RRIRRRPPRLPRPRPRPQYRPRP,-0.0575
16,RRIRRRPPRLPRPRPRPQYTPRP,-0.221
17,RRIRRRPPRLPRPRPRPRCQPRP,0.385
18,RRIRRRPPRLPRPRPRPRCRPRP,1.57
19,RRIRRRPPRLPRPRPRPRDCPRP,0.177
20,RRIRRRPPRLPRPRPRPRDIPRP,0.0666
21,RRIRRRPPRLPRPRPRPRDRPRP,0.713
22,RRIRRRPPRLPRPRPRPREIPRP,0.479
23,RRIRRRPPRLPRPRPRPRIFPRP,0.0808
24,RRIRRRPPRLPRPRPRPRITPRP,0.186
25,RRIRRRPPRLPRPRPRPRKPPRP,0.153

row,Sequence,shrunken log2 fold change
1,RRIRRRPPRLPRPRPRPRLEPRP,0.508
2,RRIRRRPPRLPRPRPRPRMCPRP,0.17
3,RRIRRRPPRLPRPRPRPRMVPRP,0.218
4,RRIRRRPPRLPRPRPRPRQDPRP,0.274
5,RRIRRRPPRLPRPRPRPRQLPRP,0.394
6,RRIRRRPPRLPRPRPRPRRKPRP,0.43
7,RRIRRRPPRLPRPRPRPRSAPRP,0.532
8,RRIRRRPPRLPRPRPRPRSKPRP,0.29
9,RRIRRRPPRLPRPRPRPRSSPRP,0.0954
10,RRIRRRPPRLPRPRPRPRTKPRP,0.0753
11,RRIRRRPPRLPRPRPRPRTWPRP,1.84
12,RRIRRRPPRLPRPRPRPRWNPRP,0.326
13,RRIRRRPPRLPRPRPRPRWTPRP,0.453
14,RRIRRRPPRLPRPRPRPSACPRP,0.195
15,RRIRRRPPRLPRPRPRPSEIPRP,0.0269
16,RRIRRRPPRLPRPRPRPSFHPRP,-0.182
17,RRIRRRPPRLPRPRPRPSFMPRP,-0.106
18,RRIRRRPPRLPRPRPRPSHRPRP,-0.00626
19,RRIRRRPPRLPRPRPRPSMDPRP,0.0821
20,RRIRRRPPRLPRPRPRPSNPPRP,-0.203
21,RRIRRRPPRLPRPRPRPSRAPRP,0.369
22,RRIRRRPPRLPRPRPRPSREPRP,0.962
23,RRIRRRPPRLPRPRPRPSRLPRP,0.177
24,RRIRRRPPRLPRPRPRPSRRPRP,-0.0701
25,RRIRRRPPRLPRPRPRPSSIPRP,-0.485
